# Data: article PMC7565527, “Cryo-EM Structure of Heterologous Protein Complex Loaded Thermotoga Maritima Encapsulin Capsid” (Biomolecules, 2020)
# Target: the molecule itself
# Test: cryo-EM structure; Encap/IDM complex coexpressed in insect cells, purified by Ni-NTA and Superdex 200; icosahedral reconstruction of the encapsulin shell at 2.87 Å, C1 reconstruction at 4.29 Å
protein,measurement,value
"Thermotoga maritima encapsulin capsid protein, C-terminus His-tagged (natural protein, T. maritima encapsulin capsid protein; gene amplified from pET14-GFP30-Encap (Addgene #86406); model built from PDB 3DKT; Assembles into an icosahedral shell with 12 fivefold pores; its symmetry expansion ('the other expanded 59 sets') implies 60; also called encapsulin shell; source: insect cells (baculovirus, pFastBac1), coexpressed with cargo, purified (Ni-NTA, Superdex 200); not shown: His …) MEFLKRSFAPLTEKQWQEIDNRAREIFKTQLYGRKFVDVEGPYGWEYAAHPLGEVEVLSDENEVVKWGLRKSLPLIELRATFTLDLWELDNLERGKPNVDLSSLEETVRKVAEFEDEVIFRGCEKSGVKGLLSFEERKIECGSTPKDLLEAIVRALSIFSKDGIEGPYTLVINTDRWINFLKEEAGHYPLEKRVEECLRGGKIITTPRIEDALVVSERGGDFKLILGQDLSIGYEDREKDAVRLFITETFTFQVVNPEALILLKF",binding result,binds
